Data: the supplement of paper PMC7877785
± gives the uncertainty stated by the source.

Assay: self-splicing fitness, log relative to wild type (ln ratio); higher = more splicing; Tetrahymena group I intron in knt gene, E. coli kanamycin selection, DiMSum; sequences stand for … in CUCUCU…GGAGGGAAAAGUUAUCAGGCAUGCACCUGGUAGCUAGUCUUUAAACCAAUAGAUUGCAUCGGUUUAAAAGGCAAGACCGUCAAAUUGCGGGAAAGGGGUCAACAGCCGUUCAGUACCAAGUCUCAGGGGAAACUUUGAGAUGGCCUUGCAAAGGGUAUGGUAAUAAGCUGACGGACAUGGUCCUAACCACGCAGCCAAGUCCUAAGUCAACAGAUCUUCUGUUGAUAUGGAUGCAGUUCACAGACUAAAUGUCGGUCGGGGAAGAUGUAUUCUUCUCAUAAGAUAUAGUCGGACCUCUCCUUAAUGGGAGCUAGCGGAUGAAGUGAUGCAACACUGGAGCCGCUGGGAACUAAUUUGUAUGCGAAAGUAUAUUGAUUAGUUUUGGAGUACUCGUGGUCG
Method in brief: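 Pooled colonies went to amplicon sequencing on an Illumina HiSeq 2500 after six replicate transformations. The plates were LB agar with 100 μg/mL carbenicillin, 50 μM IPTG and 0.2% rhamnose, with or without 25 μg/mL kanamycin, incubated overnight at 37°C or 30°C. The E. coli BL21(DE3) library had all eight P1ex-region intron nucleotides randomised, the intron placed in the knt kanamycin-resistance gene on pET-22b(+). DiMSum fitness is the error-weighted combination of replicate fold changes, kanamycin against none, normalised to wild type.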

Sequence | self-splicing fitness (ln) (30 °C) | self-splicing fitness (ln) (37 °C)
AAAUAGCAAUAUUACGUCAU | -2.45 ± 0.08 | -1.51 ± 0.11
AAAUAGCAAUAUUACGUCCA | -0.829 ± 0.084 | -0.327 ± 0.1
AAAUAGCAAUAUUACGUCGG | -2.54 ± 0.14 | -1.14 ± 0.13
AAAUAGCAAUAUUACGUCGU | -2.69 ± 0.17 | -1.55 ± 0.16
AAAUAGCAAUAUUACGUCUC | -2.14 ± 0.11 | -1.15 ± 0.14
AAAUAGCAAUAUUACGUGAU | -2.26 ± 0.099 | -1.89 ± 0.11
AAAUAGCAAUAUUACGUGGG | -3.39 ± 0.2 | -2.49 ± 0.2
AAAUAGCAAUAUUACGUUAG | -4.15 ± 0.42 | -3.24 ± 0.3
AAAUAGCAAUAUUACGUUCA | -0.751 ± 0.094 | 0.187 ± 0.12
AAAUAGCAAUAUUACGUUCC | -2.08 ± 0.16 | -1.1 ± 0.19
AACAAGCAAUAUUACGAAAU | -3.53 ± 0.13 | -1.4 ± 0.095
AACAAGCAAUAUUACGAGUG | -0.911 ± 0.049 | -0.0361 ± 0.07
AACAAGCAAUAUUACGAUGG | -3.11 ± 0.094 | -1.72 ± 0.079
AACAAGCAAUAUUACGAUUA | -0.823 ± 0.066 | -0.696 ± 0.071
AACAAGCAAUAUUACGAUUG | -4.48 ± 0.21 | -1.54 ± 0.13
AACAAGCAAUAUUACGCAGU | -3.43 ± 0.19 | -1.93 ± 0.16
AACAAGCAAUAUUACGCCAC | -3.71 ± 0.4 | -2.83 ± 0.47
AACAAGCAAUAUUACGCCCC | -0.645 ± 0.24 | 0.323 ± 0.26
AACAAGCAAUAUUACGCGUC | -3.84 ± 0.2 | -2.66 ± 0.15
AACAAGCAAUAUUACGCUUG | -2.82 ± 0.12 | -2.28 ± 0.16
AACAAGCAAUAUUACGGAGA | -3.58 ± 0.23 | -3.19 ± 0.24
AACAAGCAAUAUUACGGCGA | -0.0322 ± 0.064 | -0.329 ± 0.071
AACAAGCAAUAUUACGGCUA | -0.414 ± 0.067 | 0.274 ± 0.092
AACAAGCAAUAUUACGGGCG | -0.896 ± 0.075 | -1.08 ± 0.089

Sequence | self-splicing fitness (ln) (30 °C) | self-splicing fitness (ln) (37 °C)
AACAAGCAAUAUUACGGGUA | -0.841 ± 0.063 | -0.307 ± 0.071
AACAAGCAAUAUUACGUAAC | -3.29 ± 0.12 | -2.33 ± 0.17
AACAAGCAAUAUUACGUAGG | -2.76 ± 0.086 | -1.57 ± 0.1
AACAAGCAAUAUUACGUCCG | -1.26 ± 0.067 | -0.444 ± 0.085
AACAAGCAAUAUUACGUGAC | -2.94 ± 0.095 | -2.34 ± 0.12
AACCAGCAAUAUUACGAAAU | -1.08 ± 0.058 | -0.397 ± 0.074
AACCAGCAAUAUUACGAAUC | -1.65 ± 0.094 | -0.882 ± 0.1
AACCAGCAAUAUUACGACAU | -0.243 ± 0.01 | 0.152 ± 0.031
AACCAGCAAUAUUACGACCA | -0.702 ± 0.082 | 0.122 ± 0.11
AACCAGCAAUAUUACGACGA | -0.496 ± 0.076 | -0.38 ± 0.071
AACCAGCAAUAUUACGAUCG | -0.866 ± 0.084 | -0.752 ± 0.099
AACCAGCAAUAUUACGAUCU | -0.425 ± 0.052 | 0.391 ± 0.074
AACCAGCAAUAUUACGAUGC | -1.49 ± 0.076 | -0.673 ± 0.082
AACCAGCAAUAUUACGAUGG | -2.91 ± 0.11 | -2.76 ± 0.14
AACCAGCAAUAUUACGCGAU | -3.69 ± 0.19 | -1.77 ± 0.15
AACCAGCAAUAUUACGCGCU | -2.01 ± 0.13 | -0.894 ± 0.13
AACCAGCAAUAUUACGCGGG | -4.5 ± 0.24 | -3.16 ± 0.24
AACCAGCAAUAUUACGGCGG | -0.585 ± 0.059 | -0.164 ± 0.078
AACCAGCAAUAUUACGGCUU | -0.621 ± 0.056 | 0.209 ± 0.082
AACCAGCAAUAUUACGGUUC | -3.75 ± 0.14 | -2.43 ± 0.17
AACCAGCAAUAUUACGUACA | -1.08 ± 0.08 | -0.429 ± 0.11
AACCAGCAAUAUUACGUAGU | -1.99 ± 0.06 | -1.42 ± 0.071
AACCAGCAAUAUUACGUAUU | -1.79 ± 0.072 | -0.754 ± 0.08
AACCAGCAAUAUUACGUCCG | -1.56 ± 0.073 | -0.0163 ± 0.091

Sequence | self-splicing fitness (ln) (30 °C) | self-splicing fitness (ln) (37 °C)
AACCAGCAAUAUUACGUUAA | -1.83 ± 0.086 | -1.26 ± 0.085
AACCAGCAAUAUUACGUUCG | -2.59 ± 0.15 | -1.63 ± 0.13
AACCAGCAAUAUUACGUUUG | -2.83 ± 0.077 | -2.31 ± 0.1
AACGAGCAAUAUUACGAAUA |  | -1.63 ± 0.34
AACGAGCAAUAUUACGACGG | -4.27 ± 0.37 | -2.04 ± 0.23
AACGAGCAAUAUUACGAUAG | -3.04 ± 0.22 | -2.49 ± 0.22
AACGAGCAAUAUUACGAUGU | -2.35 ± 0.2 | -1.99 ± 0.17
AACGAGCAAUAUUACGCACA | -2.86 ± 0.23 | -2.09 ± 0.21
AACGAGCAAUAUUACGCGUU | -4.34 ± 0.2 | -2.42 ± 0.14
AACGAGCAAUAUUACGCUCG | -2.55 ± 0.35 | 
AACGAGCAAUAUUACGCUGG | -3.72 ± 0.31 | -0.45 ± 0.16
AACGAGCAAUAUUACGGAAC | -2.26 ± 0.23 | 
AACGAGCAAUAUUACGGAAU | -2.84 ± 0.24 | -1.81 ± 0.22
AACGAGCAAUAUUACGGACC | -2.49 ± 0.15 | -1.55 ± 0.22
AACGAGCAAUAUUACGGAGG | -2.79 ± 0.19 | -2.38 ± 0.27
AACGAGCAAUAUUACGGAUG | -3.34 ± 0.31 | 
AACGAGCAAUAUUACGGCGA | -1.95 ± 0.23 | -0.978 ± 0.2
AACGAGCAAUAUUACGGGAA | -2.18 ± 0.22 | -2.74 ± 0.27
AACGAGCAAUAUUACGGGGG | -3.29 ± 0.26 | -3.01 ± 0.37
AACGAGCAAUAUUACGGUGG | -3.68 ± 0.32 | -2.05 ± 0.34
AACGAGCAAUAUUACGUACG | -4.19 ± 0.46 | -1.63 ± 0.35
AACGAGCAAUAUUACGUCCU | -1.04 ± 0.079 | -0.143 ± 0.095
AACGAGCAAUAUUACGUCGU | -2.5 ± 0.23 | -2.9 ± 0.31
AACGAGCAAUAUUACGUGCA | -2.58 ± 0.13 | -2.01 ± 0.18

Sequence | self-splicing fitness (ln) (30 °C) | self-splicing fitness (ln) (37 °C)
AACGAGCAAUAUUACGUUAU | -3.69 ± 0.16 | -1.52 ± 0.11
AACUAGCAAUAUUACGAAUG | -2.36 ± 0.11 | -1.69 ± 0.12
AACUAGCAAUAUUACGAUCC | 0.0588 ± 0.16 | 0.358 ± 0.19
AACUAGCAAUAUUACGAUUG | -2.97 ± 0.12 | -1.23 ± 0.12
AACUAGCAAUAUUACGCAGC | -3.32 ± 0.25 | -2.98 ± 0.43
AACUAGCAAUAUUACGCCAC |  | -1.79 ± 0.36
AACUAGCAAUAUUACGCGUG | -1.53 ± 0.08 | -0.485 ± 0.09
AACUAGCAAUAUUACGCGUU | -3.51 ± 0.19 | -2.48 ± 0.29
AACUAGCAAUAUUACGCUUU | -2.44 ± 0.097 | -1.71 ± 0.12
AACUAGCAAUAUUACGGAGG | -3.08 ± 0.2 | -1.99 ± 0.22
AACUAGCAAUAUUACGGCUG | -1.02 ± 0.098 | -0.0943 ± 0.15
AACUAGCAAUAUUACGGGAA | -1.5 ± 0.074 | -1.13 ± 0.084
AACUAGCAAUAUUACGGGAC | -3.22 ± 0.3 | -1.08 ± 0.17
AACUAGCAAUAUUACGGGCG | -0.139 ± 0.081 | -0.0101 ± 0.11
AACUAGCAAUAUUACGGGGG | -2.73 ± 0.2 | -1.53 ± 0.22
AACUAGCAAUAUUACGGGUA | -0.761 ± 0.072 | -0.0817 ± 0.07
AACUAGCAAUAUUACGUGAG | -1.28 ± 0.075 | -1.03 ± 0.1
AACUAGCAAUAUUACGUGCC | -1.39 ± 0.12 | -0.755 ± 0.13
AACUAGCAAUAUUACGUGUC | -4.26 ± 0.19 | -1.25 ± 0.1
AACUAGCAAUAUUACGUUCC | -2.63 ± 0.22 | -1.93 ± 0.24
AACUAGCAAUAUUACGUUUU | -3.52 ± 0.097 | -1.32 ± 0.075
AAGAAGCAAUAUUACGAAAA | -1.8 ± 0.17 | -1.57 ± 0.18
AAGAAGCAAUAUUACGAAGC | -3.02 ± 0.18 | -2.43 ± 0.28
AAGAAGCAAUAUUACGAUCA | -0.455 ± 0.08 | -0.229 ± 0.099
